Reference: article PMC6534608, “Rational design of a hypoallergenic Phl p 7 variant for immunotherapy of polcalcin-sensitized patients” (Scientific Reports, 2019)

B1: recombinant wildtype Phl p 7 (timothy grass pollen polcalcin) (natural protein)
chain: ADDMERIFKRFDTNGDGKISLSELTDALRTLGSTSADEVQRMMAEIDTDGDGFIDFNEFISFCNANPGLMKDVAKVF
notes: codon-optimized synthetic gene in pET17b (NdeI/EcoRI); also called rPhl p 7 wildtype; Phl p 7 wildtype; source: E. coli BL21(DE3), purified (anion-exchange chromatography, HiTrap Q FF)

How the values were obtained:
[1] = target: recombinant Phl p 7 mutant (hypoallergenic variant, four calcium-coordinating residues replaced by alanine) (timothy grass); assay: SEC; size exclusion chromatography (Yarra SEC-X150) coupled to a UV detector (230 nm) and ICPMS; 10 mM Tris, 50 mM ammonium sulfate, pH 7.5; 30 °C; apparent molecular masses
[2] = target: the molecule itself; assay: as above

| Molecule | stoichiometry N [1] | stoichiometry N [2] |
| --- | --- | --- |
| recombinant Phl p 7 mutant (hypoallergenic variant, four calcium-coordinating residues replaced by alanine) (natural protein) | 2 | – |
| B1 | – | 2 |
